Reference: patent US20240102052A1 (VNV NEWCO, published 2024)

B1: PNMA2 C136S mutant (other)
chain: MALALLEDWCRIMSVDEQKSLMVTGIPADFEEAEIQEVLQETLKSLGRYRLLGKIFRKQENANAVLLELLEDTDVSAIPSEVQGKGGVWKVIFKTPNQDTEFLERLNLFLEKEGQTVSGMFRALGQEGVSPATVPSISPELLAHLLGQAMAHAPQPLLPMRYRKLRVFSGSAVPAPEEESFEVWLEQATEIVKEWPVTEAEKKRWLAESLRGPALDLMHIVQADNPSISVEECLEAFKQVFGSLESRRTAQVRYLKTYQEEGEKVSAYVLRLETLLRRAVEKRAIPRRIADQVRLEQVMAGATLNQMLWCRLRELKDQGPPPSFLELMKVIREEEEEEASFENESIEEPEERDGYGRWNHEGDD
B2: PNMA2 C233S mutant (other)
chain: MALALLEDWCRIMSVDEQKSLMVTGIPADFEEAEIQEVLQETLKSLGRYRLLGKIFRKQENANAVLLELLEDTDVSAIPSEVQGKGGVWKVIFKTPNQDTEFLERLNLFLEKEGQTVSGMFRALGQEGVSPATVPCISPELLAHLLGQAMAHAPQPLLPMRYRKLRVFSGSAVPAPEEESFEVWLEQATEIVKEWPVTEAEKKRWLAESLRGPALDLMHIVQADNPSISVEESLEAFKQVFGSLESRRTAQVRYLKTYQEEGEKVSAYVLRLETLLRRAVEKRAIPRRIADQVRLEQVMAGATLNQMLWCRLRELKDQGPPPSFLELMKVIREEEEEEASFENESIEEPEERDGYGRWNHEGDD
B3: PNMA2 C310S mutant (other)
chain: MALALLEDWCRIMSVDEQKSLMVTGIPADFEEAEIQEVLQETLKSLGRYRLLGKIFRKQENANAVLLELLEDTDVSAIPSEVQGKGGVWKVIFKTPNQDTEFLERLNLFLEKEGQTVSGMFRALGQEGVSPATVPCISPELLAHLLGQAMAHAPQPLLPMRYRKLRVFSGSAVPAPEEESFEVWLEQATEIVKEWPVTEAEKKRWLAESLRGPALDLMHIVQADNPSISVEECLEAFKQVFGSLESRRTAQVRYLKTYQEEGEKVSAYVLRLETLLRRAVEKRAIPRRIADQVRLEQVMAGATLNQMLWSRLRELKDQGPPPSFLELMKVIREEEEEEASFENESIEEPEERDGYGRWNHEGDD
B4: wild type PNMA2 (other)
chain: MALALLEDWCRIMSVDEQKSLMVTGIPADFEEAEIQEVLQETLKSLGRYRLLGKIFRKQENANAVLLELLEDTDVSAIPSEVQGKGGVWKVIFKTPNQDTEFLERLNLFLEKEGQTVSGMFRALGQEGVSPATVPCISPELLAHLLGQAMAHAPQPLLPMRYRKLRVFSGSAVPAPEEESFEVWLEQATEIVKEWPVTEAEKKRWLAESLRGPALDLMHIVQADNPSISVEECLEAFKQVFGSLESRRTAQVRYLKTYQEEGEKVSAYVLRLETLLRRAVEKRAIPRRIADQVRLEQVMAGATLNQMLWCRLRELKDQGPPPSFLELMKVIREEEEEEASFENESIEEPEERDGYGRWNHEGDD
notes: Self-associating capsid subunit
B5: PNMA2 C10S mutant (other)
chain: MALALLEDWSRIMSVDEQKSLMVTGIPADFEEAEIQEVLQETLKSLGRYRLLGKIFRKQENANAVLLELLEDTDVSAIPSEVQGKGGVWKVIFKTPNQDTEFLERLNLFLEKEGQTVSGMFRALGQEGVSPATVPCISPELLAHLLGQAMAHAPQPLLPMRYRKLRVFSGSAVPAPEEESFEVWLEQATEIVKEWPVTEAEKKRWLAESLRGPALDLMHIVQADNPSISVEECLEAFKQVFGSLESRRTAQVRYLKTYQEEGEKVSAYVLRLETLLRRAVEKRAIPRRIADQVRLEQVMAGATLNQMLWCRLRELKDQGPPPSFLELMKVIREEEEEEASFENESIEEPEERDGYGRWNHEGDD

Target: the molecule itself
Assay: SDS-PAGE and western blot, self-association

Binding result, binds:
B1
B2
B3
B4
B5
